Patent publication US11787839B2, “Targeting α2δ-1-bound glutamate receptors for treating diseases and disorders” (Board of Regents, The University of Texas System, priority 2017, dated 2023)
Entries after “also recorded” stand apart in the source; their conditions may differ.

What was measured:
α2δ-1-NMDAR interaction = experiment: Luminescence resonance energy transfer (LRET) in HEK293 cells; assay type: binding, rat
Text: Luminescence resonance energy transfer (LRET) measurements: For constructs used for LRET measurements, the extracellular non-disulfide-bonded cysteines were mutated to serines so that they were not labeled with the maleimide reactive fluorophore. For the GluN1 subunit, Cys22 and Cys459 were mutated; for the GluN2A subunit, Cys231, Cys399 and Cys461 were mutated. For measurement of LRET between GluN1 and α2δ-1, Cys22 was not mutated and was used as the site for attachment of the thiol-reactive fluorophore. Additionally, for quantitative analysis of the background, a thrombin recognition sequence (amino acids LVPRGS) was inserted immediately at the C-terminal to the cysteine (Kim and Chung, 1992). […]
Cysteines at the GluN1 and GluN2A sites labeled with thiol-reactive terbium chelate served as donor fluorophore sites, and YFP fused to α2δ-1 served as the acceptor fluorophore. […] The sample was excited at 337 nm, and emission was detected at 527 nm in a QuantaMaster QM3-SS system with Fluorescan software (Photon Technology International, Edison, N.J.). […] Data were analyzed with Origin 8.6 software (OriginLab Corp., Northampton, Mass.). Each sample was scanned 3 times for each ligated condition, and each scan was recorded as an average of 99 sweeps. […] The distance between the donor and acceptor was calculated using the Förster equation (Kim and Chung, 1992).

paclitaxel-treated rats = experiment: Paclitaxel-induced pain hypersensitivity in rats; assay type: in vivo, rat; settings: intrathecal 5 μg pregabalin, 1 μg peptides
Experimental: To induce neuropathic pain, rats and mice were intraperitoneally injected with paclitaxel (2 mg/kg; TEVA Pharmaceuticals, North Wales, Pa.) every 2 days for a total of 4 injections (days 1, 3, 5 and 7; total dose, 8 mg/kg), as described previously (Polomano et al., 2001). Animals in the control group were intraperitoneally injected with the vehicle (Cremophor EL/ethanol, 1:1) on the same 4 days. The presence of tactile allodynia was confirmed 10 to 12 days after drug treatment. Intrathecal catheters were implanted in some paclitaxel-treated rats during isoflurane-induced anesthesia. Briefly, a small puncture was made in the atlanto-occipital membrane of the cisterna magna and inserted a PE-10 catheter with the caudal tip reaching the lumbar enlargement of the spinal cord (Chen et al., 2014a; Xie et al., 2016).
Behavioral assessment of nociception: To measure tactile allodynia, mice or rats were individually placed on a mesh floor within a suspended chamber. […]
To quantify the mechanical nociceptive threshold in rats, the paw pressure (Randall-Selitto) test was conducted on the left hindpaw using an analgesiometer (Ugo Basile, Varese, Italy). […] When the rat withdrew its paw or vocalized, the pedal was immediately released, and the withdrawal threshold was recorded (Chen et al., 2014a). […]
To assess the thermal sensitivity of rats, the were placed individually on the glass surface of a thermal testing apparatus (IITC Life Sciences, Woodland Hills, Calif.). […] The paw withdrawal latency was recorded with a timer, and the hindpaw was tested twice to obtain an average time. […] After the threshold temperature was recorded, the mice were immediately removed from the plate. The heat threshold measurement was repeated 30 min later, and the average of the 2 recorded temperatures was considered as the heat threshold. The cold threshold was measured by cooling the plate from 30° C. at a rate of 6° C./min until nocifensive behaviors were observed. […]

[1] = biological target: T1, presynaptic NMDARs of spinal dorsal horn neurons (Rattus norvegicus, UniProt P35439+Q00959+Q00960); experiment: Spinal cord slice recordings, morphine-treated rats; assay type: cell-based; settings: AP5 50 μM, gabapentin 100 μM
T1 construct: from tissue; host or cells: rat lumbar spinal cord slices (lamina II neurons) and synaptosomes made from them
Experimental: Spinal cord slice preparation and electrophysiological recordings: The lumbar spinal cord was rapidly removed through laminectomy from the animals anesthetized with isoflurane. […] The spinal cord tissue was then placed in a shallow groove formed in an agar block and glued onto the stage of a vibratome (Leica, Germany).
All signals were recorded using an amplifier (MultiClamp700B; Axon Instruments Inc., Union City, Calif.), filtered at 1-2 kHz, and digitized at 10 kHz.

[2] = biological target: presynaptic NMDARs of spinal lamina II neurons (Rattus norvegicus, UniProt P35439+Q00959+Q00960)
presynaptic NMDARs of spinal lamina II neurons, sequence (Q00959 20-1464 limits assumed, other chains not shown): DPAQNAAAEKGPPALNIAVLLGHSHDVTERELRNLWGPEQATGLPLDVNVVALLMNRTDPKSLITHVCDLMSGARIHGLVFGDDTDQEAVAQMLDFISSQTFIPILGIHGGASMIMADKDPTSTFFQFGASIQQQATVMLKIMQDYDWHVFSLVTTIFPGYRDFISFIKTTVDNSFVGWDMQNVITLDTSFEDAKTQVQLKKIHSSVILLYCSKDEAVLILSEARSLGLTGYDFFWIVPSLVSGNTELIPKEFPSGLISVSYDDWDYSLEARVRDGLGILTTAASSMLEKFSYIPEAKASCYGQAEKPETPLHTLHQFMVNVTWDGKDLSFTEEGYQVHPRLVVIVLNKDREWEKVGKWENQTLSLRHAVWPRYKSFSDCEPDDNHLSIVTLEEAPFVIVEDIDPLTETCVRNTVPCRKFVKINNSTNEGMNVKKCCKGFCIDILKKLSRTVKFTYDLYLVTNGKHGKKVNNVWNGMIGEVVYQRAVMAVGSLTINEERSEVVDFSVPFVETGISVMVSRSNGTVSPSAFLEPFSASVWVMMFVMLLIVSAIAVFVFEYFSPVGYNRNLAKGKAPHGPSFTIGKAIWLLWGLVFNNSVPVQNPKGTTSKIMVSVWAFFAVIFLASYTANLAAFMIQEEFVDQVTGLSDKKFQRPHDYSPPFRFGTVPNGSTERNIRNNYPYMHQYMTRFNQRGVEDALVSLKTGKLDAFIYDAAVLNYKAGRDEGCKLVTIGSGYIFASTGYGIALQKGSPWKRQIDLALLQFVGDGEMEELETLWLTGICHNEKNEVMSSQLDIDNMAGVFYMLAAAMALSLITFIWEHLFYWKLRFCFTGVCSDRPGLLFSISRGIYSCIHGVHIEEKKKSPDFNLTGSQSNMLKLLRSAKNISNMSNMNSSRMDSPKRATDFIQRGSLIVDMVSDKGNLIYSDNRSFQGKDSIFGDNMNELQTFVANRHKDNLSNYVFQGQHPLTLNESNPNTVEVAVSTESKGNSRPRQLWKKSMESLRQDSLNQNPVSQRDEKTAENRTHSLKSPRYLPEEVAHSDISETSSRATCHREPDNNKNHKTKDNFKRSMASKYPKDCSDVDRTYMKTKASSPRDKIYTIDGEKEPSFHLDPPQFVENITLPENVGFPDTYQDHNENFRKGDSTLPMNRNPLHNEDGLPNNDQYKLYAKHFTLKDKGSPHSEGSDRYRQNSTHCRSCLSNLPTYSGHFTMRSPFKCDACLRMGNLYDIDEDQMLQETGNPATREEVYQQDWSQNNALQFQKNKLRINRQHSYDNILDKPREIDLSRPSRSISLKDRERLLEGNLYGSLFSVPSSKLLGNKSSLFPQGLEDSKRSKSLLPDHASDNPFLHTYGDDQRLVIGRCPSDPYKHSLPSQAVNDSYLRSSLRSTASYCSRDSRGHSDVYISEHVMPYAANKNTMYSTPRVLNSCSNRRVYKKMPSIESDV
presynaptic NMDARs of spinal lamina II neurons, sequence (Q00960 27-1482, other chains not shown): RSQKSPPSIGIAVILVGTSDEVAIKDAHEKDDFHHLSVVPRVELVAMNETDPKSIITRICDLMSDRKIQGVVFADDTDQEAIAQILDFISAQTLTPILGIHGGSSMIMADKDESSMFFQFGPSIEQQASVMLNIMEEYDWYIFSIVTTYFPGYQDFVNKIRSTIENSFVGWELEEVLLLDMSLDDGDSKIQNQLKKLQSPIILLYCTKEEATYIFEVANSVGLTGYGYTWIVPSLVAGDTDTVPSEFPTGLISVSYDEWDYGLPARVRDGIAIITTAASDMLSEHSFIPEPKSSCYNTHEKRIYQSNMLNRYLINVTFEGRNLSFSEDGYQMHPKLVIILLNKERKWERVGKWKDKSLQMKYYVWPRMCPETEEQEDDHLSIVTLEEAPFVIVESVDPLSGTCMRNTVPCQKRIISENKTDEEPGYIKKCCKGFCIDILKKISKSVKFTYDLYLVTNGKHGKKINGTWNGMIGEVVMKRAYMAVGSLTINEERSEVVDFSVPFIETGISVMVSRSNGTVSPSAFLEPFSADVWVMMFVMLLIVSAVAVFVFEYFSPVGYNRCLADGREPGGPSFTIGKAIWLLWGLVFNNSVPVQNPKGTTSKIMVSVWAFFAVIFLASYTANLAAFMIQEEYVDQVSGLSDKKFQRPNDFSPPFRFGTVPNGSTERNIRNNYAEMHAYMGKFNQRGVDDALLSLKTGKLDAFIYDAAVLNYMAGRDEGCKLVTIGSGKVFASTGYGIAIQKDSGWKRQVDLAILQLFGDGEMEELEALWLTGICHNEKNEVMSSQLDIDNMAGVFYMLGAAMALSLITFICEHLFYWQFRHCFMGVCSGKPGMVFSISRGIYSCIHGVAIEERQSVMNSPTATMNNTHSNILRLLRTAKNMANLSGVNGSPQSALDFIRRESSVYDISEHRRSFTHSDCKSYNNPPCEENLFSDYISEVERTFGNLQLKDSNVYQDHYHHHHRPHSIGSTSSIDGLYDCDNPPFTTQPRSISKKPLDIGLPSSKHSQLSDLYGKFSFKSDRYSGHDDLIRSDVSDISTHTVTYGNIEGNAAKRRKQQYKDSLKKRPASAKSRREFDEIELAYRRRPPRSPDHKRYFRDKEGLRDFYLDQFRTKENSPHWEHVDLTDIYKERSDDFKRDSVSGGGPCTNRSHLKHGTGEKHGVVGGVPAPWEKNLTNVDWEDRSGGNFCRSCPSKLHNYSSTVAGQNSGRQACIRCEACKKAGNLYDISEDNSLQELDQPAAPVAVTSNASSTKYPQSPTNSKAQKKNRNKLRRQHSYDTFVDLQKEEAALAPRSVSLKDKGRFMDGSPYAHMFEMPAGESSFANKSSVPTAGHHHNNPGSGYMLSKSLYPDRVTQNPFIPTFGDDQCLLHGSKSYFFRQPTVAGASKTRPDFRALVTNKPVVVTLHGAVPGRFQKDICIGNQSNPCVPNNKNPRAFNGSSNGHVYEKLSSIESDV

[3] = paclitaxel-treated rats, AP5 50 μM, pregabalin 20 μM, peptides 1 μM
[4] = vehicle-treated rats, AP5 50 μM, pregabalin 20 μM, peptides 1 μM

Molecule | LRET signal with the R217A mutant of α2δ-1 (α2δ-1-NMDAR interaction; YFP-α2δ-1 R217A mutant) | LRET signal between terbium-labeled NMDAR subunit and YFP-α2δ-1 (α2δ-1-NMDAR interaction; wild-type α2δ-1, terbium-labeled GluN2A or GluN1) | paclitaxel-induced pain hypersensitivity (tactile allodynia, mechanical and thermal hyperalgesia) (paclitaxel-treated rats) | frequency of mEPSCs in dorsal horn neurons ([1]; peptide 1 μM for 60 min) | amplitude of monosynaptic evoked EPSCs ([1]; peptides 1 μM for 60 min) | reduced PPR of evoked EPSCs ([2]; paclitaxel-treated rats) | increased amplitude of evoked monosynaptic EPSCs [2, 3] | increased frequency of mEPSCs of lamina II neurons [2, 3] | PPR of evoked EPSCs ([2]; vehicle-treated rats) | amplitude of evoked monosynaptic EPSCs [2, 4] | frequency of mEPSCs of lamina II neurons [2, 4]
NCC1(CC(=O)O)CCCCC1 [gabapentin] | failed to alter; also recorded: had no effect | completely abrogated; also recorded: loss of the LRET signal; also recorded: diminished the interaction |  |  |  |  |  |  |  |  | 
YGRKKRRQRRRVSGLNPSLWSIFGLQFILLWLVSGSRHYLW (a2d1 peptide) [α2δ-1Tat peptide] |  |  | markedly attenuated | significantly reduced | normalized | fully reversed | completely reversed | completely normalized | had no effect | did not affect | neither incubation with α2δ-1Tat peptide nor bath application of AP5 had any effect
